Data from patent publication US20020128201A1 (GREEN PEPTIDE, published 2002).

Target: T1, HLA-A2402 (human, UniProt P04439-2 25-302 at identity 0.92))
T1 MHC heavy: not shown
Test: cell-based or functional assay

B1: Lck486-494 (peptide)
peptide: TFDYLRSVL
In the case of B1, the “lowest peptide concentration at which enhancement of IFN-γ production by KE4-CTLs was detected (peptide-pulsed ClR/A2402 cells)” value (“lowest peptide concentration” below) is reported as ~1 nM.

B2: Lck488-497 (peptide)
peptide: DYLRSVLEDF
With B2 the “lowest peptide concentration” value was ~1 nM.

B3: Lck208-216 (peptide)
peptide: HYTNASDGL
For B3, the “lowest peptide concentration” value was ≥ 100 nM.
